Measured values from article PMC10248732.
Where two headings read alike, the source gives them in different places.

T1: GST-OsLUX (Oryza sativa, UniProt Q94DH3 1-238)
T1 sequence: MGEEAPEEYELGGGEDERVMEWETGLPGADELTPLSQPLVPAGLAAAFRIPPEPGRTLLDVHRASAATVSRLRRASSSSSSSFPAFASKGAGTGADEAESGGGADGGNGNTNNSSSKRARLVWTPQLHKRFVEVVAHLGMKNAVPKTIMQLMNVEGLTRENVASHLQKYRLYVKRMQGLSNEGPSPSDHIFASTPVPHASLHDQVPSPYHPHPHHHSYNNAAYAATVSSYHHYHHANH

B1: Ghd7-P (LBS, 3 copies) (dsDNA)
DNA 1: CAGCACGAATCTTGAGCAGCACGAATCTTGAGCAGCACGAATCTTGAG
DNA 2: CTCAAGATTCGTGCTGCTCAAGATTCGTGCTGCTCAAGATTCGTGCTG
B2: Hd1-P (S4 LBS, 3 copies) (dsDNA)
DNA 1: CGCTGGATTCGACTTGCGCTGGATTCGACTTGCGCTGGATTCGACTTG
DNA 2: CAAGTCGAATCCAGCGCAAGTCGAATCCAGCGCAAGTCGAATCCAGCG

Legend:
[1] = biological target: T1, GST-OsLUX; assay: EMSA
[2] = biological target: T1, GST-OsLUX; assay: EMSA; remark: listed apart in the source

| Binder | binding result [1] | binding result [2] |
| --- | --- | --- |
| B1 | binds | – |
| B2 | – | binds |
